Experiments:
[1] = immunocytochemistry of internalised VEGFR2, BSA vs VEGF; conditions: glycan lost; control: ∆21-121 EMCN
[2] = cell surface biotinylation, VEGFR2 western blot, hEMCN knockdown HRECs; conditions: glycan lost; control: ∆21-121 EMCN

B1: mouse EMCN (mEMCN, endomucin): N-Mut (protein)
parent chain: MRLLQATVLFFLLSNSLCHSEDGKDVQNDSIPTPAETSTTKASVTIPGIVSVTNPNKPADGTPPEGTTKSDVSQTSLVTTINSLTTPKHEVGTTTEGPLRNESSTMKITVPNTPTSNANSTLPGSQNKTENQSSIRTTEISVTTQLLDALPKITATSSASLTTAHTMSLLQDTEDRKIATTPSTTPSYSSIILPVVIALVVITLLVFTLVGLYRICWKRDPGTPENGNDQPQSDKESVKLLTVKTISHESGEHSAQGKTKN
In the case of B1, the “other: rescue of VEGF-induced VEGFR2 internalisation, other: VEGFR2-positive pixels per cell” value [1] is reported as “abolishes” and the “other: rescue of VEGF-induced VEGFR2 internalisation” value [2] is reported as “abolishes”.

— publication PMC7349057
